Test results published in patent US20040161821A1 (COLD SPRING HARBOR LABORATORY, published 2004).

Columns and labels:
[1] = biological target: T1, chimeric receptor CSF-MET, P07333
T1 chain: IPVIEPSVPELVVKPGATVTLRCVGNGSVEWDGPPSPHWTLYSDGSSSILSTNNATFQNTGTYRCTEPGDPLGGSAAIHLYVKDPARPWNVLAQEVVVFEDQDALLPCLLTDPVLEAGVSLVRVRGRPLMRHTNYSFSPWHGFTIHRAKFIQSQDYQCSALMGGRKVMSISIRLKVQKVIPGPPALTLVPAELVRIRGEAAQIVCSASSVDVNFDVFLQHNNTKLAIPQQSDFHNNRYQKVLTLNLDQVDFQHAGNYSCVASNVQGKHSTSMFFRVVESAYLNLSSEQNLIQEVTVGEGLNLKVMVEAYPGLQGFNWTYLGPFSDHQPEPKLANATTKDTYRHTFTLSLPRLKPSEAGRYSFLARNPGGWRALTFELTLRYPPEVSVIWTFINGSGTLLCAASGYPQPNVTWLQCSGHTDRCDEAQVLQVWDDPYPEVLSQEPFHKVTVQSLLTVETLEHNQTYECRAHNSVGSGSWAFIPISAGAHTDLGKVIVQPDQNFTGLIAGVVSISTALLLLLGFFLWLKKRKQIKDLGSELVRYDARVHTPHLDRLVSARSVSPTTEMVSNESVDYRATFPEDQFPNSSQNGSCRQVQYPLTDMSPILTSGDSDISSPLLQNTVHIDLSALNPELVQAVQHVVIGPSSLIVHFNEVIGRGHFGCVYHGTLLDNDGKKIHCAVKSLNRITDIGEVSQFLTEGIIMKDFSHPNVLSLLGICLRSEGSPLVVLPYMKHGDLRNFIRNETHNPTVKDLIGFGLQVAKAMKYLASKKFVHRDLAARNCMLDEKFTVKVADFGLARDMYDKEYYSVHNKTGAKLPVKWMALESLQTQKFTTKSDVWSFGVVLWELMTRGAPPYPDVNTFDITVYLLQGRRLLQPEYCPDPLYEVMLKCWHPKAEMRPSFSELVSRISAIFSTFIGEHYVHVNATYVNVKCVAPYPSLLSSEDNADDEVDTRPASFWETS

E-cadherin = biological target: T2, E-cadherin (human, UniProt P12830 155-882); test: amylose pull-down from pervanadate-treated T-47D lysate, anti-E-cadherin immunoblot
T2 construct: Endogenous protein in lysate of pervanadate-treated T-47D cells
T2 sequence (looked up): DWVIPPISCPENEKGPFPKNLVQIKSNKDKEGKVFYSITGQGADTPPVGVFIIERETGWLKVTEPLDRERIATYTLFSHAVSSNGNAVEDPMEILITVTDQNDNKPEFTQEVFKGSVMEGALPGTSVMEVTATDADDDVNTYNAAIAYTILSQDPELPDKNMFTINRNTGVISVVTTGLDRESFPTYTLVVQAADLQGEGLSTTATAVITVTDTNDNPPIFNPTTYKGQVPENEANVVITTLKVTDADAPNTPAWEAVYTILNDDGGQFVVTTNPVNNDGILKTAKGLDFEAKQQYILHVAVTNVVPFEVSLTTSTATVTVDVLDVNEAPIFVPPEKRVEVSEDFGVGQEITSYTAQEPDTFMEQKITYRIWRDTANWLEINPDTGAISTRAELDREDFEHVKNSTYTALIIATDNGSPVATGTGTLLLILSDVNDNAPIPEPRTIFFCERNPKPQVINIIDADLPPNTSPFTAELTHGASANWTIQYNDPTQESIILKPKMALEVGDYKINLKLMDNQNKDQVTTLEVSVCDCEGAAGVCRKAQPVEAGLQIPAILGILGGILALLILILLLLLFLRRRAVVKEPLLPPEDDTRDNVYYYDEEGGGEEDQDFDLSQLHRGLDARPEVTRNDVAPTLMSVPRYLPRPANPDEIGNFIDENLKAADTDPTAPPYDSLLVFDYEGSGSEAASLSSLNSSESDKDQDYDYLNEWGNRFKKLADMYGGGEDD
Protocol: (§1) Substrate trapping—Prior to lysis, T-47D and T-47D/Met cells were treated with 50 μM pervanadate for 20 minutes, whereas MDA-MB-231 cells were treated with 100 μM pervanadate for 20 minutes. Cells were rinsed with PBS and lysed in 1% NP-40 buffer (1% NP-40,150 mM NaCl, 20 mM HEPES pH7.5, 1 mM EDTA, 5 μg/ml aprotinin, 5 μg/ml leupeptin, 1 mM benzamidine). For trapping experiments in vitro, the lysis buffer also contained 5 mM iodoacetic acid to inhibit cellular PTPs irreversibly. After incubation on ice for 5 minutes, dithiothreitol was added to a final concentration of 10 mM to inactivate any unreacted iodoacetic acid. Insoluble material was removed by centrifugation. […] Lysates and fusion proteins were incubated at 4° C. for 2 hours and then washed extensively with 1% NP-40 buffer. Tyrosine phosphorylated proteins were immunoprecipitated using 0.1 mg T-47D cell lysate and a combination of 5 μl each of anti-phosphotyrosine antibodies PT-66 and 4G10. Lysate and antibodies were incubated at 4° C. for 2 hours and washed extensively with 1% NP-40 buffer.

Met, the HGF/SF receptor = biological target: T3, Met, the HGF/SF receptor (Homo sapiens (Human), UniProt P08581 25-1390, tyrosine phosphorylated (cells treated with pervanadate); sites not stated); test: amylose pull-down from pervanadate-treated T-47D/Met lysate, anti-Met immunoblot
T3 construct: also called HGF-R; HGF/SF receptor Met
Protocol: as §1

B1: full length DEP-1(CS) (protein)
chain: AGGTPSPIPDPSVATVATGENGITQISSTAESFHKQNGTGTPQVETNTSEDGESSGANDSLRTPEQGSNGTDGASQKTPSSTGPSPVFDIKAVSISPTNVILTWKSNDTAASEYKYVVKHKMENEKTITVVHQPWCNITGLRPATSYVFSITPGIGNETWGDPRVIKVITEPIPVSDLRVALTGVRKAALSWSNGNGTASCRVLLESIGSHEELTQDSRLQVNISDLKPGVQYNINPYLLQSNKTKGDPLGTEGGLDASNTERSRAGSPTAPVHDESLVGPVDPSSGQQSRDTEVLLVGLEPGTRYNATVYSQAANGTEGQPQAIEFRTNAIQVFDVTAVNISATSLTLIWKVSDNESSSNYTYKIHVAGETDSSNLNVSEPRAVIPGLRSSTFYNITVCPVLGDIEGTPGFLQVHTPPVPVSDFRVTVVSTTEIGLAWSSHDAESFQMHITQEGAGNSRVEITTNQSIIIGGLFPGTKYCFEIVPKGPNGTEGASRTVCNRTVPSAVFDIHVVYVTTTEMWLDWKSPDGASEYVYHLVIESKHGSNHTSTYDKAITLQGLIPGTLYNITISPEVDHVWGDPNSTAQYTRPSNVSNIDVSTNTTAATLSWQNFDDASPTYSYCLLIEKAGNSSNATQVVTDIGITDATVTELIPGSSYTVEIFAQVGDGIKSLEPGRKSFCTDPASMASFDCEVVPKEPALVLKWTCPPGANAGFELEVSSGAWNNATHLESCSSENGTEYRTEVTYLNFSTSYNISITTVSCGKMAAPTRNTCTTGITDPPPPDGSPNITSVSHNSVKVKFSGFEASHGPIKAYAVILTTGEAGHPSADVLKYTYDDFKKGASDTYVTYLIRTEEKGRSQSLSEVLKYEIDVGNESTTLGYYNGKLEPLGSYRACVAGFTNITFHPQNKGLIDGAESYVSFSRYSDAVSLPQDPGVICGAVFGCIFGALVIVTVGGFIFWRKKRKDAKNNEVSFSQIKPKKSKLIRVENFEAYFKKQQADSNCGFAEEYEDLKLVGISQPKYAAELAENRGKNRYNNVLPYDISRVKLSVQTHSTDDYINANYMPGYHSKKDFIATQGPLPNTLKDFWRMVWEKNVYAIIMLTKCVEQGRTKCEEYWPSKQAQDYGDITVAMTSEIVLPEWTIRDFTVKNIQTSESHPLRQFHFTSWPDHGVPDTTDLLINFRYLVRDYMKQSPPESPILVHSSAGVGRTGTFIAIDRLIYQIENENTVDVYGIVYDLRMHRPLMVQTEDQYVFLNQCVLDIVRSQKDSKVDLIYQNTTAMTIYENLAPVTTFGKTNGYIA
B1 was tested, and the “phosphorylation of Met (phospho-specific antibodies)” value [1] was “no effect on phosphorylation of Met was observed with the expression of DEP-1(CS)” and the “phosphorylation of Tyr^1349 of Met (phospho-specific antibody)” value [1] was “no change in the phosphorylation level of Tyr^1349 was observed in the presence of DEP-1(CS)”.

B2: full length wild type DEP-1 (protein)
chain: AGGTPSPIPDPSVATVATGENGITQISSTAESFHKQNGTGTPQVETNTSEDGESSGANDSLRTPEQGSNGTDGASQKTPSSTGPSPVFDIKAVSISPTNVILTWKSNDTAASEYKYVVKHKMENEKTITVVHQPWCNITGLRPATSYVFSITPGIGNETWGDPRVIKVITEPIPVSDLRVALTGVRKAALSWSNGNGTASCRVLLESIGSHEELTQDSRLQVNISDLKPGVQYNINPYLLQSNKTKGDPLGTEGGLDASNTERSRAGSPTAPVHDESLVGPVDPSSGQQSRDTEVLLVGLEPGTRYNATVYSQAANGTEGQPQAIEFRTNAIQVFDVTAVNISATSLTLIWKVSDNESSSNYTYKIHVAGETDSSNLNVSEPRAVIPGLRSSTFYNITVCPVLGDIEGTPGFLQVHTPPVPVSDFRVTVVSTTEIGLAWSSHDAESFQMHITQEGAGNSRVEITTNQSIIIGGLFPGTKYCFEIVPKGPNGTEGASRTVCNRTVPSAVFDIHVVYVTTTEMWLDWKSPDGASEYVYHLVIESKHGSNHTSTYDKAITLQGLIPGTLYNITISPEVDHVWGDPNSTAQYTRPSNVSNIDVSTNTTAATLSWQNFDDASPTYSYCLLIEKAGNSSNATQVVTDIGITDATVTELIPGSSYTVEIFAQVGDGIKSLEPGRKSFCTDPASMASFDCEVVPKEPALVLKWTCPPGANAGFELEVSSGAWNNATHLESCSSENGTEYRTEVTYLNFSTSYNISITTVSCGKMAAPTRNTCTTGITDPPPPDGSPNITSVSHNSVKVKFSGFEASHGPIKAYAVILTTGEAGHPSADVLKYTYDDFKKGASDTYVTYLIRTEEKGRSQSLSEVLKYEIDVGNESTTLGYYNGKLEPLGSYRACVAGFTNITFHPQNKGLIDGAESYVSFSRYSDAVSLPQDPGVICGAVFGCIFGALVIVTVGGFIFWRKKRKDAKNNEVSFSQIKPKKSKLIRVENFEAYFKKQQADSNCGFAEEYEDLKLVGISQPKYAAELAENRGKNRYNNVLPYDISRVKLSVQTHSTDDYINANYMPGYHSKKDFIATQGPLPNTLKDFWRMVWEKNVYAIIMLTKCVEQGRTKCEEYWPSKQAQDYGDITVAMTSEIVLPEWTIRDFTVKNIQTSESHPLRQFHFTSWPDHGVPDTTDLLINFRYLVRDYMKQSPPESPILVHCSAGVGRTGTFIAIDRLIYQIENENTVDVYGIVYDLRMHRPLMVQTEDQYVFLNQCVLDIVRSQKDSKVDLIYQNTTAMTIYENLAPVTTFGKTNGYIA
For B2, the “phosphorylation of Tyr^1230, Tyr^1234 and Tyr^1235 of Met (phospho-specific antibodies)” value [1] was “a gradual decrease in the level of phosphorylation of the activation loop tyrosine residues was observed with increasing expression of wild type DEP-1”, the “phosphorylation of Tyr^1349 of Met (phospho-specific antibody)” value [1] was “Tyr^1349 was nearly completely dephosphorylated in the presence of low levels of DEP-1” and the “phosphorylation of Tyr^1365 of Met (phospho-specific antibody)” value [1] was “Tyr^1365 was nearly completely dephosphorylated in the presence of low levels of DEP-1”.

B3: MBP.DEP-1(DA) (enzyme, not shown: large carriers; small tags and cut ends)
chain: RKKRKDAKNNEVSFSQIKPKKSKLIRVENFEAYFKKQQADSNCGFAEEYEDLKLVGISQPKYAAELAENRGKNRYNNVLPYDISRVKLSVQTHSTDDYINANYMPGYHSKKDFIATQGPLPNTLKDFWRMVWEKNVYAIIMLTKCVEQGRTKCEEYWPSKQAQDYGDITVAMTSEIVLPEWTIRDFTVKNIQTSESHPLRQFHFTSWPAHGVPDTTDLLINFRYLVRDYMKQSPPESPILVHCSAGVGRTGTFIAIDRLIYQIENENTVDVYGIVYDLRMHRPLMVQTEDQYVFLNQCVLDIVRSQKDSKVDLIYQNTTAMTIYENLAPVTTFGKTNGYIA
notes: also called DEP-1 substrate-trapping mutant (DA); DEP-1(DA) cytoplasmic domain fusion protein
B3: no binding (tested: 1 µg fusion protein to 500 µg lysate) (E-cadherin).

B4: MBP.DEP-1 (enzyme, not shown: large carriers)
chain: RKKRKDAKNNEVSFSQIKPKKSKLIRVENFEAYFKKQQADSNCGFAEEYEDLKLVGISQPKYAAELAENRGKNRYNNVLPYDISRVKLSVQTHSTDDYINANYMPGYHSKKDFIATQGPLPNTLKDFWRMVWEKNVYAIIMLTKCVEQGRTKCEEYWPSKQAQDYGDITVAMTSEIVLPEWTIRDFTVKNIQTSESHPLRQFHFTSWPDHGVPDTTDLLINFRYLVRDYMKQSPPESPILVHCSAGVGRTGTFIAIDRLIYQIENENTVDVYGIVYDLRMHRPLMVQTEDQYVFLNQCVLDIVRSQKDSKVDLIYQNTTAMTIYENLAPVTTFGKTNGYIA
notes: also called wild type DEP-1 (MBP-DEP-1); wildtype DEP-1 fusion protein
B4: no binding (tested: 1 µg fusion protein to 500 µg lysate) (Met, the HGF/SF receptor).
